This passage reports screen value results from article PMC7666136 (2020).

B1: eGFP-53BP1 (wild-type TP53-binding protein 1 tagged with enhanced green fluorescent protein) [not stated] / itself (parent complex)
chain: MDPTGSQLDSDFSQQDTPCLIIEDSQPESQVLEDDSGSHFSMLSRHLPNLQTHKENPVLDVVSNPEQTAGEERGDGNSGFNEHLKENKVADPVDSSNLDTCGSISQVIEQLPQPNRTSSVLGMSVESAPAVEEEKGEELEQKEKEKEEDTSGNTTHSLGAEDTASSQLGFGVLELSQSQDVEENTVPYEVDKEQLQSVTTNSGYTRLSDVDANTAIKHEEQSNEDIPIAEQSSKDIPVTAQPSKDVHVVKEQNPPPARSEDMPFSPKASVAAMEAKEQLSAQELMESGLQIQKSPEPEVLSTQEDLFDQSNKTVSSDGCSTPSREEGGCSLASTPATTLHLLQLSGQRSLVQDSLSTNSSDLVAPSPDAFRSTPFIVPSSPTEQEGRQDKPMDTSVLSEEGGEPFQKKLQSGEPVELENPPLLPESTVSPQASTPISQSTPVFPPGSLPIPSQPQFSHDIFIPSPSLEEQSNDGKKDGDMHSSSLTVECSKTSEIEPKNSPEDLGLSLTGDSCKLMLSTSEYSQSPKMESLSSHRIDEDGENTQIEDTEPMSPVLNSKFVPAENDSILMNPAQDGEVQLSQNDDKTKGDDTDTRDDISILATGCKGREETVAEDVCIDLTCDSGSQAVPSPATRSEALSSVLDQEEAMEIKEHHPEEGSSGSEVEEIPETPCESQGEELKEENMESVPLHLSLTETQSQGLCLQKEMPKKECSEAMEVETSVISIDSPQKLAILDQELEHKEQEAWEEATSEDSSVVIVDVKEPSPRVDVSCEPLEGVEKCSDSQSWEDIAPEIEPCAENRLDTKEEKSVEYEGDLKSGTAETEPVEQDSSQPSLPLVRADDPLRLDQELQQPQTQEKTSNSLTEDSKMANAKQLSSDAEAQKLGKPSAHASQSFCESSSETPFHFTLPKEGDIIPPLTGATPPLIGHLKLEPKRHSTPIGISNYPESTIATSDVMSESMVETHDPILGSGKGDSGAAPDVDDKLCLRMKLVSPETEASEESLQFNLEKPATGERKNGSTAVAESVASPQKTMSVLSCICEARQENEARSEDPPTTPIRGNLLHFPSSQGEEEKEKLEGDHTIRQSQQPMKPISPVKDPVSPASQKMVIQGPSSPQGEAMVTDVLEDQKEGRSTNKENPSKALIERPSQNNIGIQTMECSLRVPETVSAATQTIKNVCEQGTSTVDQNFGKQDATVQTERGSGEKPVSAPGDDTESLHSQGEEEFDMPQPPHGHVLHRHMRTIREVRTLVTRVITDVYYVDGTEVERKVTEETEEPIVECQECETEVSPSQTGGSSGDLGDISSFSSKASSLHRTSSGTSLSAMHSSGSSGKGAGPLRGKTSGTEPADFALPSSRGGPGKLSPRKGVSQTGTPVCEEDGDAGLGIRQGGKAPVTPRGRGRRGRPPSRTTGTRETAVPGPLGIEDISPNLSPDDKSFSRVVPRVPDSTRRTDVGAGALRRSDSPEIPFQAAAGPSDGLDASSPGNSFVGLRVVAKWSSNGYFYSGKITRDVGAGKYKLLFDDGYECDVLGKDILLCDPIPLDTEVTALSEDEYFSAGVVKGHRKESGELYYSIEKEGQRKWYKRMAVILSLEQGNRLREQYGLGPYEAVTPLTKAADISLDNLVEGKRKRRSNVSSPATPTASSSSSTTPTRKITESPRASMGVLSGKRKLITSEEERSPAKRGRKSATVKPGAVGAGEFVSPCESGDNTGEPSALEEQRGPLPLNKTLFLGYAFLLTMATTSDKLASRSKLPDGPTGSSEEEEEFLEIPPFNKQYTESQLRAGAGYILEDFNEAQCNTAYQCLLIADQHCRTRKYFLCLASGIPCVSHVWVHDSCHANQLQNYRNYLLPAGYSLEEQRILDWQPRENPFQNLKVLLVSDQQQNFLELWSEILMTGGAASVKQHHSSAHNKDIALGVFDVVVTDPSCPASVLKCAEALQLPVVSQEWVIQCLIVGERIGFKQHPKYKHDYVSH

Variants of B1 are the subject of the first assay. Kind of assay: Number and brightness (NB) analysis of fluorescence fluctuation spectroscopy in live DIvA cells; live DIvA cell nuclei, transient transfection, N = 10 cells, two biological replicates; value is the box median; parent: 0.22; read off a plot.
Take chain 1 Y1258A, chain 1 Y1259A: the screen value is ~0.06 fraction (pixels).

Variants of B1 are the subject of the next assay. As to the kind of experiment: Number and brightness (NB) analysis of fluorescence fluctuation spectroscopy in live DIvA cells; single representative cell ROI; value is the top of the teal (monomer) segment of the stacked bar, the rest of the bar being dimer (green); parent: 0.79; read off a plot.
chain 1 Y1258A, chain 1 Y1259A: the screen value is ~0.96 fraction (pixels).
